First the molecules themselves.
B1: RAD54B (parent)
chain: YVQEKRDGLKRRQQLEEELLRAKI

The record followed here is the supplement of paper PMC10567573.
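Also: lentivirally expressed fusions sorted by FACS into six bins by GFP to DsRed ratio, PSI derived from sequencing read proportions per bin multiplied by bin number.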

This series covers variants of B1. The series is described as follows: protein stability index of a GFP-peptide fusion (GPS, HEK-293T) (PSI 1-6); higher = more stable. As to conditions: c terminus: a fixed tail appended.
Regarding YVQEKRDGLKRRQQLEEELLRCKI [A22C], the protein stability index is 1.83.
Take YVQEKRDGLKRRQQLEEELLRGKI [A22G]: the protein stability index came to 1.89.
For the variant YVQEKRDGLKRRQQLEEELLRVKI [A22V], the protein stability index was determined as 2.45.
On to YVQEKRDGLKRRQQLEEELLRTKI [A22T], for which the protein stability index is 1.98.
In the case of YVQEKRDGLKRRQQLEEELLRDKI [A22D], the protein stability index amounted to 2.29.
Turning to YVQEKRDGLKRRQQLEEELLRPKI [A22P], the protein stability index worked out at 1.68.
As for YVQEKRDGLKRRQQLEEELLRIKI [A22I], the figure is 2.32.
As for YVQEKRDGLKRRQQLEEELLRNKI [A22N], the figure is 2.01; as for YVQEKRDGLKRRQQLEEELLRLKI [A22L], 1.99.
For YVQEKRDGLKRRQQLEEELLRMKI [A22M], the protein stability index amounted to 2.27.
Regarding YVQEKRDGLKRRQQLEEELLRQKI [A22Q], the protein stability index stood at 2.
Take YVQEKRDGLKRRQQLEEELLREKI [A22E]: the protein stability index was determined as 2.92.
As for YVQEKRDGLKRRQQLEEELLRWKI [A22W], the figure is 2; as for YVQEKRDGLKRRQQLEEELLRYKI [A22Y], 1.81.
As for YVQEKRDGLKRRQQLEEELLRRKI [A22R], the figure is 1.83.
As for YVQEKRDGLKRRQQLEEELLRKKI [A22K], the protein stability index turned out to be 1.82.
For YVQEKRDGLKRRQQLEEELLRSKI [A22S], the protein stability index came out at 2.16.
As for YVQEKRDGLKRRQQLEEELLRFKI [A22F], the figure is 2.06.
As for YVQEKRDGLKRRQQLEEELLRHKI [A22H], the protein stability index was 1.52.
Regarding YVQEKRDGLKRRQQLEEELLRAKL [I24L], the protein stability index worked out at 1.65.
As for YVQEKRDGLKRRQQLEEELLRAKQ [I24Q], the protein stability index was found to be 2.22.
As for YVQEKRDGLKRRQQLEEELLRAKN [I24N], the protein stability index stood at 2.18.
In the case of YVQEKRDGLKRRQQLEEELLRAKA [I24A], the protein stability index stood at 1.98.
As for YVQEKRDGLKRRQQLEEELLRAKW [I24W], the figure is 2.28; as for YVQEKRDGLKRRQQLEEELLRAKF [I24F], 1.98.
Turning to YVQEKRDGLKRRQQLEEELLRAKD [I24D], the protein stability index is 2.73.
With YVQEKRDGLKRRQQLEEELLRAKK [I24K], the protein stability index was determined as 1.87.
Take YVQEKRDGLKRRQQLEEELLRAKC [I24C]: the protein stability index is 1.75.
As for YVQEKRDGLKRRQQLEEELLRAKE [I24E], the figure is 2.17; as for YVQEKRDGLKRRQQLEEELLRAKP [I24P], 2.45; as for YVQEKRDGLKRRQQLEEELLRAKY [I24Y], 1.74.
For the variant YVQEKRDGLKRRQQLEEELLRAKR [I24R], the protein stability index was 1.68.
In the case of YVQEKRDGLKRRQQLEEELLRAKM [I24M], the protein stability index was 2.05.
Consider YVQEKRDGLKRRQQLEEELLRAKG [I24G], for which the protein stability index turned out to be 2.08.
Turning to YVQEKRDGLKRRQQLEEELLRAKT [I24T], the protein stability index was found to be 1.58.
With YVQEKRDGLKRRQQLEEELLRAKS [I24S], the protein stability index amounted to 1.93.
Turning to YVQEKRDGLKRRQQLEEELLRAKH [I24H], the protein stability index worked out at 2.38.
As for YVQEKRDGLKRRQQLEEELLRAKV [I24V], the protein stability index came out at 1.92.
As for YVQEKRDGLKRRQQLEEELYRAKI [L20Y], the figure is 2.26.
YVQEKRDGLKRRQQLEEELDRAKI [L20D]: the protein stability index worked out at 1.97.
Turning to YVQEKRDGLKRRQQLEEELSRAKI [L20S], the protein stability index stood at 1.67.
Regarding YVQEKRDGLKRRQQLEEELIRAKI [L20I], the protein stability index is 1.76.
For the variant YVQEKRDGLKRRQQLEEELMRAKI [L20M], the protein stability index worked out at 1.78.
As for YVQEKRDGLKRRQQLEEELARAKI [L20A], the figure is 1.95; as for YVQEKRDGLKRRQQLEEELFRAKI [L20F], 1.3; as for YVQEKRDGLKRRQQLEEELQRAKI [L20Q], 1.75.
As to YVQEKRDGLKRRQQLEEELKRAKI [L20K], the protein stability index was found to be 2.19.
YVQEKRDGLKRRQQLEEELGRAKI [L20G]: the protein stability index is 2.08.
As for YVQEKRDGLKRRQQLEEELHRAKI [L20H], the figure is 1.81; as for YVQEKRDGLKRRQQLEEELERAKI [L20E], 2.25.
As for YVQEKRDGLKRRQQLEEELCRAKI [L20C], the figure is 1.59; as for YVQEKRDGLKRRQQLEEELRRAKI [L20R], 2.18.
For YVQEKRDGLKRRQQLEEELNRAKI [L20N], the protein stability index was 1.94.
Take YVQEKRDGLKRRQQLEEELPRAKI [L20P]: the protein stability index came to 1.78.
Regarding YVQEKRDGLKRRQQLEEELWRAKI [L20W], the protein stability index turned out to be 2.08.
In the case of YVQEKRDGLKRRQQLEEELTRAKI [L20T], the protein stability index turned out to be 1.82.
Consider YVQEKRDGLKRRQQLEEELVRAKI [L20V], for which the protein stability index came to 1.49.
In the case of YVQEKRDGLKRRQQLEEELLGAKI [R21G], the protein stability index was 2.09.
With YVQEKRDGLKRRQQLEEELLSAKI [R21S], the protein stability index came out at 2.97.
For the variant YVQEKRDGLKRRQQLEEELLLAKI [R21L], the protein stability index is 1.84.
In the case of YVQEKRDGLKRRQQLEEELLIAKI [R21I], the protein stability index was found to be 2.16.
YVQEKRDGLKRRQQLEEELLDAKI [R21D]: the protein stability index was 2.1.
As for YVQEKRDGLKRRQQLEEELLEAKI [R21E], the protein stability index amounted to 2.17.
Regarding YVQEKRDGLKRRQQLEEELLMAKI [R21M], the protein stability index was 1.96.
Regarding YVQEKRDGLKRRQQLEEELLNAKI [R21N], the protein stability index was 1.8.
For the variant YVQEKRDGLKRRQQLEEELLHAKI [R21H], the protein stability index was 1.57.
Turning to YVQEKRDGLKRRQQLEEELLKAKI [R21K], the protein stability index turned out to be 2.19.
As to YVQEKRDGLKRRQQLEEELLTAKI [R21T], the protein stability index is 2.26.
For YVQEKRDGLKRRQQLEEELLCAKI [R21C], the protein stability index is 1.87.
As for YVQEKRDGLKRRQQLEEELLWAKI [R21W], the figure is 1.93.
As for YVQEKRDGLKRRQQLEEELLPAKI [R21P], the protein stability index is 2.32.
Take YVQEKRDGLKRRQQLEEELLQAKI [R21Q]: the protein stability index was 1.89.
For the variant YVQEKRDGLKRRQQLEEELLFAKI [R21F], the protein stability index is 1.93.
With YVQEKRDGLKRRQQLEEELLYAKI [R21Y], the protein stability index is 1.75.
Take YVQEKRDGLKRRQQLEEELLVAKI [R21V]: the protein stability index was found to be 1.94.
As for YVQEKRDGLKRRQQLEEELLAAKI [R21A], the figure is 1.66.
As for YVQEKRDGLKRRQQLEEMLLRAKI [E18M], the figure is 2.01; as for YVQEKRDGLKRRQQLEEWLLRAKI [E18W], 2.42; as for YVQEKRDGLKRRQQLEELLLRAKI [E18L], 1.55.
YVQEKRDGLKRRQQLEERLLRAKI [E18R]: the protein stability index was determined as 1.88.
Consider YVQEKRDGLKRRQQLEETLLRAKI [E18T], for which the protein stability index is 1.48.
In the case of YVQEKRDGLKRRQQLEESLLRAKI [E18S], the protein stability index worked out at 2.13.
Consider YVQEKRDGLKRRQQLEENLLRAKI [E18N], for which the protein stability index amounted to 1.96.
As for YVQEKRDGLKRRQQLEEVLLRAKI [E18V], the protein stability index came out at 1.94.
In the case of YVQEKRDGLKRRQQLEEKLLRAKI [E18K], the protein stability index is 1.95.
As for YVQEKRDGLKRRQQLEEILLRAKI [E18I], the figure is 1.67; as for YVQEKRDGLKRRQQLEEYLLRAKI [E18Y], 2.22; as for YVQEKRDGLKRRQQLEEPLLRAKI [E18P], 2.
On to YVQEKRDGLKRRQQLEEQLLRAKI [E18Q], for which the protein stability index was 2.03.
As for YVQEKRDGLKRRQQLEEELLRAMI [K23M], the protein stability index turned out to be 2.62.
Take YVQEKRDGLKRRQQLEEELLRALI [K23L]: the protein stability index turned out to be 3.08.
As to YVQEKRDGLKRRQQLEEELLRAEI [K23E], the protein stability index came out at 1.71.
Consider YVQEKRDGLKRRQQLEEELLRAVI [K23V], for which the protein stability index came to 2.25.
For YVQEKRDGLKRRQQLEEELLRAWI [K23W], the protein stability index worked out at 1.59.
